Biological target: the molecule itself
Assay: SAXS; purified proteins or co-expressed, co-purified complexes in solution; 50 mM Tris-Cl pH 8.0, 100 mM KCl, 5 mM MgCl2, 5 mM 2-mercaptoethanol; 10°C or 25°C; 3-6 concentrations between 7.8 and 0.15 mg/ml; homodimers told from measurements at low concentrations

| Protein | stoichiometry N |
| --- | --- |
| Thp2p with C-terminal 6xHis tag (isolated protein) (natural protein, Saccharomyces cerevisiae, UniProt O13539 1-261, looked up, Thp2p, Saccharomyces cerevisiae; pET-30 Ek/LIC vector; purified without TEV cleavage; also called isolated Thp2p; source: E. coli Rosetta (DE3), purified (Ni-NTA, Source 15Q, Superdex 200); not shown: 6xHis, C-terminal, kept) MTKEEGRTYFESLCEEEQSLQESQTHLLNILDILSVLADPRSSDDLLTESLKKLPDLHRELINSSIRLRYDKYQTREAQLLEDTKTGRDVAAGVQNPKSISEYYSTFEHLNRDTLRYINLLKRLSVDLAKQVEVSDPSVTVYEMDKWVPSEKLQGILEQYCAPDTDIRGVDAQIKNYLDQIKMARAKFGLENKYSLKERLSTLTKELNHWRKEWDDIEMLMFGDDAHSMKKMIQKIDSLKSEINAPSESYPVDKEGDIVLE | 2 |
| Mft1pΔC336-392 with C-terminal 6xHis tag (isolated protein) (domain or fragment, Saccharomyces cerevisiae, UniProt P33441 1-335, looked up, pET-30 Ek/LIC vector; purified without TEV cleavage; also called isolated Mft1p; source: E. coli Rosetta (DE3), purified (Ni-NTA, Source 15Q, Superdex 200); not shown: 6xHis, C-terminal, kept) MPLSQKQIDQVRTKVHYSEVDTPFNKYLDILGKVTKLTGSIINGTLSNDDSKIEKLTEQNISQLKESAHLRFLDLQSSIDTKKVADENWETCQQETLAKLENLKDKLPDIKSIHSKLLLRIGKLQGLYDSVQVINREVEGLSEGRTSLVVTRAEWEKELGTDLVKFLIEKNYLKLVDPGLKKDSSEERYRIYDDFSKGPKELESINASMKSDIENVRQEVSSYKEKWLRDAEIFGKITSIFKEELLKRDGLLNEAEGDNIDEDYESDEDEERKERFKRQRSMVEVNTIENVDEKEESDHEYDDQEDEENEEEDDMEVDVEDIKEDNEVDGESSQQ | 2 |

— publication PMC4111604, “Structural Characterization of the Saccharomyces cerevisiae THO Complex by Small-Angle X-Ray Scattering” (PLoS ONE, 2014)
